Primed or numbered codes have the meaning given here. Where no end group is shown, it is not given here. Side-chain parts run from the residue outwards. [ ]: non-standard residue; d: D form. The star is where a group is joined. DOTA″ = DOTA chelator, carrying Sc, O=C([O-])CN1CCN(CC(=O)[O-])CCN(CC(=O)*)CCN(CC(=O)[O-])CC1.[Sc+3]; DOTA′ = DOTA-Sc chelate, O=C([O-])CN1CCN(CC(=O)[O-])CCN(CC(=O)*)CCN(CC(=O)[O-])CC1.[Sc+3]; hArg = N=C(N)NCCCC[C@H](N)C(=O)O; Dab = NCC[C@H](N)C(=O)O; Ahx = NCCCCCC(=O)O
T1: Recombinant human NRP-1 (neuropilin-1 co-receptor) (human, UniProt O14786 22-856)
T1 construct: neuropilin-1, human, recombinant; It is probably a soluble extracellular construct (surmise); source: bought: BioLegend
T1 sequence (looked up): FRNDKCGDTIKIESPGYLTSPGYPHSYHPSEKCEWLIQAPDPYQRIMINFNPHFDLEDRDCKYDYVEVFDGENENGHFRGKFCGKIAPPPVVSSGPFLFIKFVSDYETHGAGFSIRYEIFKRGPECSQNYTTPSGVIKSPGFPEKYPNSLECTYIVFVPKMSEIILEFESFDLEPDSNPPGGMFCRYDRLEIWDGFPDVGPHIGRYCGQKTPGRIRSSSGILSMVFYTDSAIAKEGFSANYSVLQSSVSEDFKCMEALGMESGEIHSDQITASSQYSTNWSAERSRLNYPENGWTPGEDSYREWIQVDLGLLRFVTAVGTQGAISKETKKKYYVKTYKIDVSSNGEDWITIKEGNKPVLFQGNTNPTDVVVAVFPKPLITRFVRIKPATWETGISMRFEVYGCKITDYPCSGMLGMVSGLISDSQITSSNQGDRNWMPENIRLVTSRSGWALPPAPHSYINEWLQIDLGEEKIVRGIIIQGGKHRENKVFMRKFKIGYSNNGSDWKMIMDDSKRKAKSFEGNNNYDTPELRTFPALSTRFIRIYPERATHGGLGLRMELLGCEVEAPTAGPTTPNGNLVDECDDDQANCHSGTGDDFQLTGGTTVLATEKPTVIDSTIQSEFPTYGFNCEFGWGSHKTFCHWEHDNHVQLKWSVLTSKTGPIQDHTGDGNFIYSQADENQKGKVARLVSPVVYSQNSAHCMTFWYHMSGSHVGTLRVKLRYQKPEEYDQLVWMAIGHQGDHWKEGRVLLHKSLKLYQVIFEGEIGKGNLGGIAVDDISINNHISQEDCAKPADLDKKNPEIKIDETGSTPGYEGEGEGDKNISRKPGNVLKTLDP

B1: Ala-Thr-Trp-Leu-Pro-Pro-Arg (A7R) heptapeptide (peptide)
peptide: ATWLPPR
notes: found by a mutated phage library screening; free C-terminal carboxyl group; also called ^LA7R; source: synthetic peptide (SPPS, Fmoc chemistry)
B2: Lys(DOTA-Sc)-A7R (peptide)
peptide: H-K(DOTA′)ATWLPPR
modifications: also: DOTA chelating Sc
notes: Lys(DOTA)-Ala-Thr-Trp-Leu-Pro-Pro-Arg; the Lys is a linker before A7R; also called Sc-1bis; source: bought: CASLO ApS (conjugate 1bis), complexed with ScCl3
B3: Sc-DOTA-Ahx-A7R (peptide)
peptide: {DOTA″-Ahx}-ATWLPPR
modifications: also: Sc chelated by DOTA
notes: A7R peptide with linker and chelator on the N-terminus; also called Sc-1; source: synthetic peptide conjugate (SPPS), complexed with ScCl3

Each binder was assayed against T1, Recombinant human NRP-1 (neuropilin-1 …) (assay: ELISA; competitive; recombinant human NRP-1 coated on a 96-well plate (200 ng/well, overnight, 4 °C), blocked with 0.5% BSA in PBS; 50 µL compound in PBS (100, 50, 25, 12.5, 6.75 µM) plus 50 µL (400 ng/mL) human (bt)-VEGF-A165 in PBS with 4 µg/mL heparin; 2 h at room temperature; streptavidin-HRP, chemiluminescence; IC50 by nonlinear regression, mean ± SD of three experiments). Conditions: both partners purified.

**Q.** How did the IC50 turn out when B1 was run?
**A.** 17.5 µM

**Q.** For B2, which IC50 is on record?
**A.** 18.1 µM

**Q.** Which IC50 does the source give for K(hArg)[Dab]PR [branched peptidomimetic Lys(hArg)-Dab-Pro-Arg (K4R)] here?
**A.** 4.83 µM

**Q.** [dR][dP][dP][dL][dW][dT][dA] (also called ^DR7A) [retro-inverso isomer of A7R (DArg-DPro-DPro-DLeu-DTrp-DThr-DAla)] was tested. Which IC50 did it give?
**A.** > 100 µM

**Q.** K(hArg)[Dab]([Ahx-DOTA″])PR (also: Sc chelated by DOTA) [Lys(hArg)-Dab(Ahx-DOTA-Sc)-Pro-Arg] was tested. Which IC50 did it give?
**A.** 17.9 µM

**Q.** Which IC50 does the source give for B3 here?
**A.** 22.5 µM
